In the nanobody polyreactivity screen of Harvey et al. (2022):

Experiment: yeast display, Sf9 membrane polyspecificity reagent, FACS + sequencing; frameworks hold sequencing errors
Method in brief: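 A synthetic nanobody library was expressed on Saccharomyces cerevisiae BJ5465 by galactose induction for 36–48 hours. The library was stained for 1 hour at 4 °C with 10% biotinylated, detergent-solubilized Sf9 membrane reagent and enriched with streptavidin microbeads before FACS. Low and high (top ~1%) gates were set on anti-HA fluorescence for expression and streptavidin fluorescence for reagent binding, and each polyreactivity label reflects the gate of origin.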

| Sequence | polyreactivity (PSR sort gate) |
| --- | --- |
| QVQVVESGGGLVQAGGSLRLSCAASGFTFSFYAMGWYRQAPGKERELVAAISSGGTTSYADSVKGRFTISRDYAKNTVYLQMNSLKPEDTAVYYCATDVYYYRTGAYTSTKPYDYWGQGTQVTVSS | low polyreactivity |
| QVQLVESGGGLVQAGGSLRLSCAASGRIIPSYAMGWYRQAPGKERELVAAISDSDGSTYYADSVKGRFTISRDNAKNTVYLQMNSLKPEDTAVYYCAAEGSYPAYDYWGQGTQVTVSS | low polyreactivity |
| QVQLVESGGGLVQAGGSLRLSCAASGSNFRYNTMGSYRQAPGKERELVAAITQSGDNTYYADSVKGRFTISRDNAKNTVYLQMNSLKPEDTAVYYCAASGARSDGWTSYDYWGQGTQVTVSS | low polyreactivity |
| QVQLVETGGGLVQAGGSLRLSCAASGRTIVYYDMGWYRQAPGKEREFVSTITSSGGSTYYADSVKGRFTISRDNAKNTVYVQMNSLKPEDTAVYYCAAYPYIRYSKVSKYYYWGQGTQVTVSS | high polyreactivity |
| QVQLVESGGGLVQAGGSLRLSCAASGYIVRNAMGWYRQAPGKERQLVAAISRRGGSTYYADSVKGRFTISRDNAKNTVYLQLNSLKPEDTAVYYCAKDKVIPSFDADYYDWGQGTQVTVSS | high polyreactivity |
| QVHLVESGGGLVQAGGSLRLSCAASGRIFKIYAMGWYRQAPGKERELVASISWSGGRTYYADSVKGGFTISRDNAKNTVYVQMNSLKPEDTAVYYCAATFSNSSYIYDFWGQGTHVTVSS | high polyreactivity |
| QVQLVESGGGLVQAGGSLRLSSAASGRIFYGYAMGWYRQAPGKERELVAAITNTGVDTYYADSVKGRFTISRDNEKNTVYLQMNSLKPEDTAVYYCAADGRRPKSGYWGQGTQVTVSS | low polyreactivity |
| QVQLVESGGGLVQAGGSLRLSCAASGSTFYQYVMGWYRQAPGKERELVAAISGSGGSTYYADSVKGRFTISRDNAKNTVYLQMNSLKPEDTAVYYCAADNYFDWYWLFFEYDYWGQGTQVTVSS | high polyreactivity |
| QVQLVESGGGLVQAGGTLRLSCAASGYIFAWYAMGWYRQAPGKERELVATITWRGGSTYYADSVKGRFTISRDNAKNTVYLQMNSLKPEDTAVYYCNKDVTPLHYDSWGQGTQVTVSS | high polyreactivity |
| QVQLVESGGGLVQAGGSLRLSCAASGFTFGVYAMGWYRQAPGKERELVAAISTTVGSTYYADSVKGRFTISRDNAKNTVYLQMNSLKPEDSAVYYCAAEYTGYINYYIYEYWGQGTQVTVSS | low polyreactivity |
| QVQLVESGGGIVKAGGSLRLSCAPSGSTFDYYTMGWYRQAPGKERELVAAISRSGGSTRYADSVKGRFTISRDNAKNTVDLQMNSLKPEDTAVYYCAAGARQGVYRGGDYWGQGTQVTVSS | low polyreactivity |
| QVQLVESGAGLVHAGGSLRFSCAPSGIIIYRYAMGWYRQAPGKERELVAGISQRGGNTYYADSVKGRFTISRDNEKNTVYLQMYSLKPEDTAVYYCAAPYYGTRTNNRHEYWGLGTQVTVSS | high polyreactivity |
| QVQLVESGGGLVQAGGSLRLSCAPSGRILAYYAMGWYRQAPGKEREFVAAIDSGSSTNYADSVKGRFTISRDNAKNTVYLQMNSLKPEDTAVYYCAARIRWWYYYLRSQTYYYWGQGTQVTVSS | low polyreactivity |
| QVQLVESGGGLVQAGGSLRLSCAASGLTFGRNAMGWYRQAPGKERELVAAITFNGGSTYYADSVKGRFTISRDNAKNTVYLQMNSLKPEDTAVYYCAARLWRRSRFDYWGQGTQVTVSS | high polyreactivity |
| QVQIVESGGGLVQAGGSLRLSCAPSGRIITRKTMGWYRQAPGKEREFVAAISQSGGRTYYADSVKGRFTISRDNAKNTVYLQMNSLKPEDTAVYYCNAQFARSSGFNYWGQGTQVTVSS | high polyreactivity |
| QVQLVESGGGLVQAGGSLRLSCAASGSIFRRYTMGWYRQAPGKERELVAAISRVGNTNYADSVKGRFTISRDNAKNTVYLQMNSLKPEDTAVYYCAADLYWLLYDEDWYWWEYESDSWGQGTQVTVSS | high polyreactivity |
| QVQLVESGGGLVQAGGSLRLSCAASGSTFAGNAIGWYRQAPGKERELVAAIDSSTGSTYYADSVKGRFTISRDNAKNTVFLQMNSLKPEDTAVYYCNKTSFLVNLDYWGQGTQVTVSS | low polyreactivity |
| QVQLVESGGGLVQAGGRLRLTCAASGRNYNGNAMGRYRQAPGTERELVAGIDSDGSTNYADSVKGRFTISRDNAKNTVYLQMNSLKPDDTAGYYCAAVQGYRFYEYYYWGQGTQVTVSS | low polyreactivity |
| QVQLVDSGGGLVQAGGSLRVSCAASGLIFTRNAMGWYRPAPGKERELVAAISSSGGSTYYADSVKGRFTISRDNAKNTVYLQLNSLKPEDTAVYYCATDAAYLFTAYDYWGQGTQVTVSS | low polyreactivity |
| QVQLVESGGGLVQAGGSLRFSCAASGRTFWSNAMGWYRQAPGKERDFVAVISRAGSTTYYADSVKGRFTISRDNAKNTVYLQMNSLIPEETAVYYCAADRVRSYFSRYYSTPLDYYWGQGTQVTVSS | high polyreactivity |
| QVQLVESGGGLVQAGGSLRLSCAASGRIFGAYAMGWYRQAPGKERELVAVITTDGSTTYADSVKGRFTISRDNAKNTVYLQMNSLKPEDTAVYYCAAYGGNGQYYSQYDYWGQGTQVTVSS | low polyreactivity |
| QVQLVESGGGLVQAGGSLRLSCAASGFIFVWYAMGWYRQAPGKERELVAAINGGGRTNYADSVKGRFTISRDNAKYTVYLQMNSLKPEDTAVYYGAAVSYYKSYGEFDYWGQGTQVTVSL | high polyreactivity |

| Sequence | polyreactivity (PSR sort gate) |
| --- | --- |
| QVQLVESGGGLVQAGGSLRLSCAASGRIFTDYAMGWYRQAPGKERELVASITERGGSTDYADSVKGRFTISRDNAKITVYLQMNSLKPEDTAVYYCNARDVTLWEDVYQQDGSGSWGLGTQVTVSS | low polyreactivity |
| QVQLVESGGGLVQAGGSLRLSCAASGRTFPEYGMGWYRQAPGKEREFVAAISTRGGSTYYANSVKGRFTISRDNAKNTVYLQMNSLKPEDTAVYYCAKVYDRSGGDYWGQGTQVTVSS | low polyreactivity |
| QVQLVESGGGLVQAGGSLRLSCAASGNIFLFYVMGWYRQAPGKERELVAAITLSGTNTYYADSVKGRFTISRDNAKNTVYLQMNSLKPEDTAVYYCNADWWSDGYDYWGQGTQVTVSS | low polyreactivity |
| QVQLVESGGGLVQAGGSLRLSCAASGRIFHYNTMGWYRQAPGKERELVAAITSSGGSTYYADSVKGRFTISRDNAKNTVYLQMNSLKPEDTAVYYCNAVFYRYGYKVDYWGQGTQVTVSS | high polyreactivity |
| QVQLVESAGGLVQAGGSLRLSCAASGRILVRNAMGWYRQAPGTERELVAAIRRGTSTNYADSVKGRFTISRDNAKNTVYLQMNSLKPEDTAVYYCAVRAASPYLDGAWRRRYDYWGQGTQVTVSS | low polyreactivity |
| QVQLVESGAGLVQAAGSLSLSCASAGSTFFLYAMGRYRRAHGKVREFVAAISDTGGSTYYADSVKGRFTISRDNATNTVYLQMISLKPEDTACYYCNRVVASFYRSRYDYWGQGTQVTVSS | low polyreactivity |
| QVQLVESGGGLVQAGGSLRLSCAASGRTFRYYAMGWYRQAPGKERELVAAISWNGANTYYADSVKGRFTISRDNAKNTVYLQMNSLKPEDTAVYYCAANYYRWKGYDYWGQGTQVTVSS | high polyreactivity |
| QVQLVESGGGLVQAGGSLRLSCAASGFIFARNTMGWYRQSPGKERELVAAITKSGGSTYYADSVKGRFTISRDNAKNTVYLQMNSLKPEDTAVYYCAKDPVELSPADWRADYDYWGQGTQVTVSS | low polyreactivity |
| QVQLVESGGGLVQAGGSLRLSCAASGRIFRYNAMGWYRQAPGKERELVAAITNSCSTNYADSVKGRFTISRDNAKNTVYLQMNSMKQEDTAVYYCAARARFYGGRSYDYWGQGTQVTVSS | high polyreactivity |
| QVQLVESGGGLVQAGGSLRLSCAASGSIFTYNAMGWYRKAPGKERELVAVISWSGGSTYYADSVKGRFTISRDNAKNTVYLQMNSLKPEDTAVYYCNSDYYRPYGNKYGYWGQGTQVTVSS | high polyreactivity |
| QVQLVESGGGLVQAGGSLRLSCAASRSTFPWYAMGWYRQAPGKERELVARINSGGSTTYADSVKGRFTISRDNAKNTVYLQMNSLKPEDTAVYYCAADRWYSTYLASYYGYDYWGQGTQVTVSS | low polyreactivity |
| QVQLVESGGGLVQAGGSLRLSCAASGSTFTYYAMGWYRQAPGKERELVAAITSRGGITYYADSVKGRFTISRDNAKNTVYLQMNSLKPEDTAVYYCNAYSQRYGYYYWGQGTQVTVSS | high polyreactivity |
| QVQLVESGVGLVQARGSLPLSCAASGFIFNTMGWYRQAPGKERELVATISWSDGSTYYADSVKGRFTISRDNAKNTVYLQMNTLKPEDTAVYYCAATTDALVGRPRYDYWGQGTQVTVSS | low polyreactivity |
| QVQLVESGGGLVQAGGSLRLSCAASGSTFLYYAMGWYRQAPGKERELVAVIRLDAGRTYYADSVKGRFTISRDNAKNTVYFQMNSLKPEDTAVYYCAAKGSFRTYGGGNYWGQGTQVTVSS | high polyreactivity |
| QVQLVESGGGLVQAGGSLRLSCAASGYTFRAYAMGWYRPAPGKERELVAAISRRGGSTYYADSVKGRFTISRDNAKNTVYLQMNSLKPEDTAVYYCAADFRSEHAEDYWGQGTQVTVSS | high polyreactivity |
| QVQLVESGGGLVQAGGSLRLSCAASGRTFYNAMGWYRQAPGKERQLVAAITTGGGTKYADSVKGRFTISRDNAKNTVYLEMNSLKPEDTAVYYCNTDEWNHFYHGAHKYDYWGQGTQVTVSS | low polyreactivity |
| QVQLVESGGGLVQAGGSLRLSCAASGSIFDVNAMGWYRPAPGKERELVAAISDSGGSTYYADSVKGRFTISRDTAKNTVYLQMNSLKPEDTAVYYCNADWSWYNYYDFDYWGQGTQVTVSS | low polyreactivity |
| QVQLVESGGGLVQAGGSLRLSCDASGFILSSNAMGWYRQAPGKERELVAAISSSGRTYYTDSVKGRFTISRDNAKNTVYLQMNSLKPEDTAVYYCAAGGYYYAIGYWGQGTQVTLSS | high polyreactivity |
| QLQLQESGGGLVQAGVCLSCTASGTIFGQGDMGWYRQAPGKERELVATINDGASTYYADSVKGRFTISRDKAKNTVYLQKNSLKPDDNAVYYCAVFTDITTYFGYWGQGTQVTVSS | low polyreactivity |
| QVQLVESGGGIVQAGCSLRLICAASGRIFYSNYMGWYRQAPGKERELVAAISSSGGSTYYADSLKGRFTISRDNANNTVYLQMNSLKPEDTAVYYCNAVHARYRSQGDYWGQGTQVTVSS | low polyreactivity |
| QVQIVESGGGLVQAGGSLRLSCAASGSTFTWYAMGWYRQAPGKERELVAAIRYSGDSTYYADSVKGRFTISRDNAKNTVYLQMNSLKPEDTAVYYCAAQYYPQYRRRMNYWGQGTQVTVSS | high polyreactivity |
